Here are results for 17 sequences from the DeepSol protein solubility set.

This data set in a line: soluble on expression in E. coli; label from the status in PepcDB or PDB records.
As for “MQVSLNPEWLARNNDEHKIRRNDHRSPFQRDRARILHSAAFRRLQAKTQVHGTSLNDFHRTRLTHSLEAAQIGTGIVAQIKLKQPEFRELLPSDSLIDSLCLAHDIGHPPYGHGGEIALNYMMRDHGGFEGNAQTFRIVTSLEPYTEHHGMNLSRRTLLGLLKYPALLSATRAAIPPPAVAHQRQLKAKDWSPAKGIYDCDLASLDWVLEPLCESDRELLGQMRAEPSSPKEHRKTRFKSLDCSIMELADDIAYGVHDLEDAIVLGMVTRAQWQEAAAAQLAECGDPWFEEHIAELSEMLFSGKHYVRKDAIGGIVNALLTSISVKPVEAPFHNELLAFNAYIEPHMGNALEVLKHFVSQYVIQIPQVQRFEYKGQQLIMDLFEALSADPERLLPQATGEKWRKAQEQDEGMRVICDYIAAMTDAYAQRLHQQLFSAQSHY”, the “soluble on expression in E. coli” value is on record as “not soluble”.
The entry for “MRALAKLAPEEGLTLVDRPVPEPGPGEILVRVEAASICGTDLHIWKWDAWARGRIRPPLVTGHEFSGVVEAVGPGVRRPQVGDHVSLESHIVCHACPACRTGNYHVCLNTQILGVDRDGGFAEYVVVPAENAWVNPKDLPFEVAAILEPFGNAVHTVYAGSGVSGKSVLITGAGPIGLMAAMVVRASGAGPILVSDPNPYRLAFARPYADRLVNPLEEDLLEVVRRVTGSGVEVLLEFSGNEAAIHQGLMALIPGGEARILGIPSDPIRFDLAGELVMRGITAFGIAGRRLWQTWMQGTALVYSGRVDLSPLLTHRLPLSRYREAFGLLASGQAVKVILDPKA” is “soluble”; for “MRCKRHTVDFSSSIGVCASCLRERLFTLAVSTAASENDDNDHRHSRISPPPLLFPRSVSPYVAPRKSDAGTGTGAGGRDSVASSNNRFFATPQVVVQSSSSEKVFESDRSFKKKKSGLSRFSSFFRTRSDDYDSRRDSCDASTVFSQPSSATTSRSWFSKVISVRSKKQSTTNTCYIEDLIASESDHHHHNQNRPRQRYCRGMSPAGDSTTNDESVEESPGRLRRTPVMGTPGRKKTATIGIGRSVSGMAFCLSPLVRAKPNCSSNWKAKFPPDFGYSGELKSPAKPHLSTAASFCGNRSKKLVDLGRVDHRR” it is “soluble”.
As to “MRCQPFCRNLAGFPQNSPAQSTTMTYTHGSALPSTDDVTIDADVATEELTGTAAFDAGVGDMPSWEELVAQHADSVYRLAFRLSGNQHDAEDLTQETFMRVFRSLKGYQPGTFEGWLHRITTNLFLDMVRHRAKIRMEALPEDYERVPGTDMTPEQAYNVSNLDPALQKALDDLSPDFRVAVVLCDVVGMSYDEIADTLGVKMGTVRSRIHRGRSQLRAHLENQATSDEGAQLLLATGR”, the “soluble on expression in E. coli” value was “not soluble”.
The same measure for “MRDVTKGSFNDSPNNGFFEIQYKEDGVYLTVHPPIGKGKAVEVNDVISRLTQKKIVYDKEMVELAVQRASNVPVKIGEPQEELKLDATIDVNISPDKMKATMVIRPPDGGRMLTKDEMMEILKNSGVRYGINESMLENVSKYPVYNEIIVIAEGTPPINGQNGKVEFHFDLKKERKPTILEDGRVDFRELNLIESVKKGQVLCTLVPPLPGTPGRTVEDIEVPALDGKPAVLPKGKNVEISEDGQSLIAGIDGQVNYIDGKVSVFANYEVPADVDNSTGNISFVGNVIIRGNVLSGFTVEAGGSVEVMGVVEAAVIKADGDIILRRGMQGLGRGILKSGGDIIAKYIENSIIEAKGDIKAEAIMHSNVKCGNKLELSGKKGLLIGGKCKVGKEIVAKVIGSYLATHTDIEVGVDPQIKERYKELRDEIRKIEEDLVKAEQAITILKKLEAAGKLTPEKQELMARSIRTKIYYSNRLGELKEELIITEQRLQKEADGKIRVFDHIYPGTKVTIGTSMMYVKEDLQYCTLYRDGADIRVGPIDK”: “soluble”; for “MREEDRRGGVKLSLTRLFLHERTVEIILRILKAEENGEKIYPLQISTDIGSPYSYVSKVLGELEKCSLVESRPEGRMRVVSLTPYGKVVASMLRDLYTELEKDFNSRMKLDILKDVYSNANGDVRVYLPVMAELEMLAKSTNDGFVVEEAKKLISEVKRKIEGAK”: “soluble”.
Regarding “MREGWRDEPAARGGCQCGRVRYSVPAGPKKSTVCHCRMCQRATGNAFAPLLEVPTADVVWEGTPAVWASSSVAERGFCATCGTPLFYRSDETTELMAGTLAGFDFRPIANHGIEGRVGWLGGLAALPDRATRPELLSRVVSHQAPDE”, the “soluble on expression in E. coli” value was “not soluble”.
As to “MREWKIIDSTLREGEQFEKANFSTQDKVEIAKALDEFGIEYIEVTTPVASPQSRKDAEVLASLGLKAKVVTHIQCRLDAAKVAVETGVQGIDLLFGTSKYLRAPHGRDIPRIIEEAKEVIAYIREAAPHVEVRFSAEDTFRSEEQDLLAVYEAVAPYVDRVGLADTVGVATPRQVYALVREVRRVVGPRVDIEFHGHNDTGCAIANAYEAIEAGATHVDTTILGIGERNGITPLGGFLARMYTLQPEYVRRKYKLEMLPELDRMVARMVGVEIPFNNYITGETAFSHKAGMHLKAIYINPEAYEPYPPEVFGVKRKLIIASRLTGRHAIKARAEELGLHYGEEELHRVTQHIKALADRGQLTLEELDRILREWITAHHHHHH”, the “soluble on expression in E. coli” value is given as “soluble”.
The entry for “MRFGPVALSAAKGALLAHSRKAPGWTLAKGTRLGDEDLALLAGLGVAEVVVARLDPGDVHEDEAAARVAAVLLGPGLTLGDAFTGRANLFAGGDGLLRLDAARFDRLNALCEGLTVATLPPFAKVAPRQMVATVKIIPFALPETVIAQAEALLAGAPALEVALFRPMRLALIQTHLPETAGKMLDKTASVTAGRMAALGGGLTVDRRCPHDTRALAACLSAVSAEKDVDLIAVAGASAIVDRGDVIPAAITRAGGRVDHLGMPVDPGNLILLGELAGRVVLGLPGCARSPAINGFDWVLDRLCAGLAVGGADLMAMGVGGLLKDTTARTQPRMAAVTHPSPAAPPRLGALVLAAGLSRRMGGVNKLLLDWRGKPLVAHAVDTVLAAGPAAVAVVIGHQGKAVRAALEGRAIALVENPDPGRGLGSSLKRGLAALPADLDGVIVCLGDMPGLTPRLLSRLIAAFAPLEGRAICLPTFGGRRGNPVLFAARFLPEMMEITGDIGARPVIAAHPDQTCEVAMDALAEGASVLMDVDTPEAAKALLSAGGLEHHHHHH” is “not soluble”; for “MRFIPLIVARPEVQMAIDEAILIARSEGRVPDTVRLYVFKPSSVTIGRFQSVRYDVNLEKAKELGIPVVRRITGGGSVFHDEYGEITYSVVISEDYHPMLKNIQDSYRFLAGPLVDALKDLGIEAEFSGLNDIVVRGKKISGSAQTRRRGIILQHGTLMYATRLEILGSVLKVSKEKLKDKGVKSIFERVTTLEREGIKVGRNEMYEVLRNSFFRAFPLDEGELTEYELELVEKLIEERYGNDKWNFQKLEHHHHHH” it is “soluble”.
The same measure for “MRFITETELRDLYKAEPFTAYTLEPRTKLTPEARQFLVDRGIKLAEAQDCKSKSTGNGKSGTEQESWNVLRLRRRMESLESLFLMVGANLLSGGSTVLAEEVFALGRCFSEVKKTAWEQTSPVNLQFQDWSEAEMKNCSTYLGKHFDITEFHVRTENGAAIASLNHLRATLRELESAVLEAYWDEEFNVCSRQDLIEKINLIMNILCVMIWKCLGGQQCKT”: “not soluble”; for “MRFSPIIGPSSYVSSLCHSILRGELFSTCSVGCIYCYARWYRGAHGKEKPLWESLKLIKMLGGIIREGLAITPIRVSTLSDPFQGEGKITLKFLKLALKEKVPVIINTKLIPREKHIKTIERLAEEGLVVVQVSLPTLEETKVLEPFSPSPGQRLELIERLSRAGVPTIVRVQPFVPGWIRDIHTFIEEIASAGARMIILEFLRIEKELLPLFSKLFPGEDIYKREWESYLPGTSTEEAPLLHPPLDYRLSIAREFSIKAEKEGLAFSTCKEGLFEFHTPLNVDCCGMAFFDVEYISRRPTLWDLYLEIVENGKAKGEDLWERCRREELLCRENLTPYPRWFRRGFIAHEKRLESVLRKPHIVERITPSIKYENGYFIKRKERSNSGYNSFF”: “not soluble”; for “MRGSHHHHHHGLVPRGSMKITVLGCGALGQLWLTALCKQGHEVQGWLRVPQPYCSVNLVETDGSIFNESLTANDPDFLATSDLLLVTLKAWQVSDAVKSLASTLPVTTPILLIHNGMGTIEELQNIQQPLLMGTTTHAARRDGNVIIHVANGITHIGPARQQDGDYSYLADILQTVLPDVAWHNNIRAELWRKLAVNCVINPLTAIWNCPNGELRHHPQEIMQICEEVAAVIEREGHHTSAEDLRDYVMQVIDATAENISSMLQDIRALRHTEIDYINGFLLRRARAHGIAVPENTRLFEMVKRKESEYERIGTGLPRPW”: “soluble”.
The entry for “MRGSHHHHHHGSATSANTDRIATAELGIAENKKDAQIAKAQANENKDGIAKNQADIQLHDKKITNLGILHSMVARAVGNNTQGVATNKADIAKNQADIANNIKNIYELAQQQDQHSSDIKTLAKVSAANTDRIAKNKAEADASFETLTKNQKLCSQA” is “soluble”.
Regarding “MRGSHHHHHHGSMTRSALVTGITGQDGAYLAKLLLEKGYRVHGLVARRSSDTRWRLRELGIEGDIQYEDGDMADACSVQRAVIKAQPQEVYNLAAQSFVGASWNQPVTTGVVDGLGVTHLLEAIRQFSPETRFYQASTSEMFGLIQAERQDENTPFYPRSPYGVAKLYGHWITVNYRESFGLHASSGILFNHESPLRGIEFVTRKVTDAVARIKLGKQQELRLGNVDAKRDWGFAGDYVEAMWLMLQQDKADDYVVATGVTTTVRDMCQIAFEHVGLDYRDFLKIDPAFFRPAEVDVLLGNPAKAQRVLGWKPRTSLDELIRMMVEADLRRVSRE”, the “soluble on expression in E. coli” value was “soluble”.
The entry for “MRGSHHHHHHGSVEVQVLIENVVFARNFVAEHGLSLLLKKGNKEIVVDTGQSENFIKNCGLMGIDVGRIKKVVLTHGHYDHIGGLKGLLERNPEVKIYTHKEILNKKYAMRKGGQFEEIGFDLSFYEKYKNNFVLIDKDAEIEEGFYVITNTDITYDNEFTTKNFFVEKEGKRIPDKFLDEVFVVVKEEDGINVVTGCSHAGILNILETARNRFGVSYIKSLIGGFHLRGMEEEKVKDIARKIEEYGVKKVLTGHCTGIDEYGFLKSVLKDKISYLTTSSSIVV” is “soluble”; for “MRGSHHHHHHTDPALRAIPQISQAPGVVQLVLNFLQELEQQGFTGDTATSYADRLTMSTDNSIYQLLPDAVVFPRSTADVALIARLAAQERYSSLIFTPRGGGTGTNGQALNQGIIVDMSRHMNRIIEINPEEGWVRVEAGVIKDQLNQYLKPFGYFFAPELSTSNRATLGGMINTDASGQGSLVYGKTSDHVLGVRAVLLGGDILDTQPLPVELAETLGKSNTTIGRIYNTVYQRCRQQRQLIIDNFPKLNRFLTGYDLRHVFNDEMTEFDLTRILTGSEGTLAFITEARLDITRLPKVRRLVNVKYDSFDSALRNAPFMVEARALSVETVDSKVLNLAREDIVWHSVSELITDVPDQEMLGLNIVEFAGDDEALIDERVNALCARLDELIASHQAGVIGWQVCRELAGVERIYAMRKKAVGLLGNAKGAAKPIPFAEDTCVPPEHLADYIAEFRALLDSHGLSYGMFGHVDAGVLHVRPALDMCDPQQEILMKQISDDVVALTAKYGGLLWGEHGKGFRAEYSPAFFGEELFAELRKVKAAFDPHNRLNPGKICPPEGLDAPMMKVDAVKRGTFDRQIPIAVRQQWRGAMECNGNGLCFNFDARSPMCPSMKITQNRIHSPKGRATLVREWLRLLADRGVDPLKLEQELPESGVSLRTLIARTRNSWHANKGEYDFSHEVKEAMSGCLACKACSTQCPIKIDVPEFRSRFLQLYHTRYLRPLRDHLVATVESYAPLMARAPKTFNFFINQPLVRKLSEKHIGMVDLPLLSVPSLQQQMVGHRSANMTLEQLESLNAEQKARTVLVVQDPFTSYYDAQVVADFVRLVEKLGFQPVLLPFSPNGKAQHIKGFLNRFAKTAKKTADFLNRMAKLGMPMVGVDPALVLCYRDEYKLALGEERGEFNVLLANEWLASALESQPVATVSGESWYFFGHCTEVTALPGAPAQWAAIFARFGAKLENVSVGCCGMAGTYGHEAKNHENSLGIYELSWHQAMQRLPRNRCLATGYSCRSQVKRVEGTGVRHPVQALLEIIKGLCGR” it is “soluble”.
